Source: paper PMC10963267, “Rapid discovery of high-affinity antibodies via massively parallel sequencing, ribosome display and affinity screening” (Nature Biomedical Engineering, 2023)

Target: T1, human epidermal growth factor receptor 2 (HER2), biotinylated (Homo sapiens, UniProt P04626, biotin)
T1 construct: biotinylated human HER2, bought; also called ERBB2; source: bought: Acro Biosystems (HE2-H822R)
Experiment: BLI; human HER2–biotin (5 µg ml^−1, 30 s) loaded on SA tip; purified Fab at 20 nM; DPBS with 0.1% BSA and 0.02% Tween 20; association 300 s, dissociation 600 s; one concentration, 1:1 fit
Details: both partners purified

Binder | Kd [nM] | fold improvement in affinity over G98A [fold] | binding result
anti-HER2 Fab HER20003 (Fab, V domains shown, as the heavy chain of m31 (G98A) with another CDR H3; as the light chain of m31; source: CHO cells, transiently transfected, purified (CaptureSelect CH1-XL)) VH: QVQLVQSGAEVKKPGESLKISCKGSGYSFTSYWIAWVRQMPGKGLEYMGLIYPGDSDTKYSPSFQGQVTISVDKSVSTAYLQWSSLKPSDSAVYFCARHDVAYCSSSRCLTWPEYFQHWGQGTLVTVSS VL: QSVLTQPPSVSAAPGQKVTISCSGSSSNIGNNYVSWYQQLPGTAPKLLIYGHTNRPAGVPDRFSGSKSGTSASLAISGFRSEDEADYYCASWDYTLSGWVFGGGTKLTVL | 2.8 | – | –
anti-HER2 Fab HER20010 (Fab, V domains shown, as the heavy chain of m31 (G98A) with another CDR H3; as the light chain of m31; From the HER2affmat library; source: CHO cells, transiently transfected, purified (CaptureSelect CH1-XL)) VH: QVQLVQSGAEVKKPGESLKISCKGSGYSFTSYWIAWVRQMPGKGLEYMGLIYPGDSDTKYSPSFQGQVTISVDKSVSTAYLQWSSLKPSDSAVYFCARHDVAYCSSSRCLDWPEYFQHWGQGTLVTVSS VL: QSVLTQPPSVSAAPGQKVTISCSGSSSNIGNNYVSWYQQLPGTAPKLLIYGHTNRPAGVPDRFSGSKSGTSASLAISGFRSEDEADYYCASWDYTLSGWVFGGGTKLTVL | – | ~300 | –
anti-HER2 Fab HER20025 (Fab, V domains shown, as the heavy chain of m31 (G98A) with another CDR H3; as the light chain of m31; From the random set (random/mut); source: CHO cells, transiently transfected, purified (CaptureSelect CH1-XL)) VH: QVQLVQSGAEVKKPGESLKISCKGSGYSFTSYWIAWVRQMPGKGLEYMGLIYPGDSDTKYSPSFQGQVTISVDKSVSTAYLQWSSLKPSDSAVYFCARHDVGYCDTPTCNKWPEYFQHWGQGTLVTVSS VL: QSVLTQPPSVSAAPGQKVTISCSGSSSNIGNNYVSWYQQLPGTAPKLLIYGHTNRPAGVPDRFSGSKSGTSASLAISGFRSEDEADYYCASWDYTLSGWVFGGGTKLTVL | 0.283 | – | –
anti-HER2 Fab HER20008 (Fab, V domains shown, as the heavy chain of m31 (G98A) with another CDR H3; as the light chain of m31; From the HER2affmat library; source: CHO cells, transiently transfected, purified (CaptureSelect CH1-XL)) VH: QVQLVQSGAEVKKPGESLKISCKGSGYSFTSYWIAWVRQMPGKGLEYMGLIYPGDSDTKYSPSFQGQVTISVDKSVSTAYLQWSSLKPSDSAVYFCARHDVAYCDSDRCAKWPEYFQHWGQGTLVTVSS VL: QSVLTQPPSVSAAPGQKVTISCSGSSSNIGNNYVSWYQQLPGTAPKLLIYGHTNRPAGVPDRFSGSKSGTSASLAISGFRSEDEADYYCASWDYTLSGWVFGGGTKLTVL | – | – | binds
anti-HER2 Fab HER20004 (Fab, V domains shown, as the heavy chain of m31 (G98A) with another CDR H3; as the light chain of m31; source: CHO cells, transiently transfected, purified (CaptureSelect CH1-XL)) VH: QVQLVQSGAEVKKPGESLKISCKGSGYSFTSYWIAWVRQMPGKGLEYMGLIYPGDSDTKYSPSFQGQVTISVDKSVSTAYLQWSSLKPSDSAVYFCARHDVGQCDSSNCAKWPEYFQHWGQGTLVTVSS VL: QSVLTQPPSVSAAPGQKVTISCSGSSSNIGNNYVSWYQQLPGTAPKLLIYGHTNRPAGVPDRFSGSKSGTSASLAISGFRSEDEADYYCASWDYTLSGWVFGGGTKLTVL | 3.4 | – | –
anti-HER2 Fab HER20013 (Fab, V domains shown, as the heavy chain of m31 (G98A) with another CDR H3; as the light chain of m31; Top clone of the ML set (ml/mut); source: CHO cells, transiently transfected, purified (CaptureSelect CH1-XL)) VH: QVQLVQSGAEVKKPGESLKISCKGSGYSFTSYWIAWVRQMPGKGLEYMGLIYPGDSDTKYSPSFQGQVTISVDKSVSTAYLQWSSLKPSDSAVYFCARHDVGYCSTSRCLTWPEYFQHWGQGTLVTVSS VL: QSVLTQPPSVSAAPGQKVTISCSGSSSNIGNNYVSWYQQLPGTAPKLLIYGHTNRPAGVPDRFSGSKSGTSASLAISGFRSEDEADYYCASWDYTLSGWVFGGGTKLTVL | 0.0607 | – | –
anti-HER2 Fab HER20011 (Fab, V domains shown, as the heavy chain of m31 (G98A) with another CDR H3; as the light chain of m31; From the HER2affmat library; source: CHO cells, transiently transfected, purified (CaptureSelect CH1-XL)) VH: QVQLVQSGAEVKKPGESLKISCKGSGYSFTSYWIAWVRQMPGKGLEYMGLIYPGDSDTKYSPSFQGQVTISVDKSVSTAYLQWSSLKPSDSAVYFCARHDVGLCSSSNCAKWPEYFQHWGQGTLVTVSS VL: QSVLTQPPSVSAAPGQKVTISCSGSSSNIGNNYVSWYQQLPGTAPKLLIYGHTNRPAGVPDRFSGSKSGTSASLAISGFRSEDEADYYCASWDYTLSGWVFGGGTKLTVL | – | – | binds
anti-HER2 Fab HER20007 (Fab, V domains shown, as the heavy chain of m31 (G98A) with another CDR H3; as the light chain of m31; From the HER2affmat library; source: CHO cells, transiently transfected, purified (CaptureSelect CH1-XL)) VH: QVQLVQSGAEVKKPGESLKISCKGSGYSFTSYWIAWVRQMPGKGLEYMGLIYPGDSDTKYSPSFQGQVTISVDKSVSTAYLQWSSLKPSDSAVYFCARHDVGYCMSSNCAKWPEYFQHWGQGTLVTVSS VL: QSVLTQPPSVSAAPGQKVTISCSGSSSNIGNNYVSWYQQLPGTAPKLLIYGHTNRPAGVPDRFSGSKSGTSASLAISGFRSEDEADYYCASWDYTLSGWVFGGGTKLTVL | – | – | binds
anti-HER2 Fab HER20006 (Fab, V domains shown, as the heavy chain of m31 (G98A) with another CDR H3; as the light chain of m31; From the HER2affmat library; source: CHO cells, transiently transfected, purified (CaptureSelect CH1-XL)) VH: QVQLVQSGAEVKKPGESLKISCKGSGYSFTSYWIAWVRQMPGKGLEYMGLIYPGDSDTKYSPSFQGQVTISVDKSVSTAYLQWSSLKPSDSAVYFCARHDVGWCTSSNCAKWPEYFQHWGQGTLVTVSS VL: QSVLTQPPSVSAAPGQKVTISCSGSSSNIGNNYVSWYQQLPGTAPKLLIYGHTNRPAGVPDRFSGSKSGTSASLAISGFRSEDEADYYCASWDYTLSGWVFGGGTKLTVL | – | ~300 | –
anti-HER2 Fab HER20009 (Fab, V domains shown, as the heavy chain of m31 (G98A) with another CDR H3; as the light chain of m31; From the HER2affmat library; source: CHO cells, transiently transfected, purified (CaptureSelect CH1-XL)) VH: QVQLVQSGAEVKKPGESLKISCKGSGYSFTSYWIAWVRQMPGKGLEYMGLIYPGDSDTKYSPSFQGQVTISVDKSVSTAYLQWSSLKPSDSAVYFCARHDVAYCSSSRCLEWPEYFQHWGQGTLVTVSS VL: QSVLTQPPSVSAAPGQKVTISCSGSSSNIGNNYVSWYQQLPGTAPKLLIYGHTNRPAGVPDRFSGSKSGTSASLAISGFRSEDEADYYCASWDYTLSGWVFGGGTKLTVL | – | ~300 | –
anti-HER2 Fab HER20015 (Fab, V domains shown, as the heavy chain of m31 (G98A) with another CDR H3; as the light chain of m31; From the ML set (ml/mut); source: CHO cells, transiently transfected, purified (CaptureSelect CH1-XL)) VH: QVQLVQSGAEVKKPGESLKISCKGSGYSFTSYWIAWVRQMPGKGLEYMGLIYPGDSDTKYSPSFQGQVTISVDKSVSTAYLQWSSLKPSDSAVYFCARHDVGYCDTPTCDKWPEYFQHWGQGTLVTVSS VL: QSVLTQPPSVSAAPGQKVTISCSGSSSNIGNNYVSWYQQLPGTAPKLLIYGHTNRPAGVPDRFSGSKSGTSASLAISGFRSEDEADYYCASWDYTLSGWVFGGGTKLTVL | – | > 1000 | –

Target: T2, hen egg lysozyme (HEL), biotinylated (Gallus gallus (hen egg white), UniProt P00698, biotin)
T2 construct: hen egg lysozyme, bought as HEL–biotin; In deep screening it was pre-complexed 1:1 with AF532-labelled streptavidin; in BLI it was loaded on a streptavidin tip; source: bought: GeneTex (GTX82960-pro)
Experiment: BLI; HEL–biotin (25 µg ml^−1, 400 s) loaded on SA tip; nanobody from periplasmic extract at 50 nM in SuperBlock PBS; association 400 or 500 s, dissociation 600 s; referenced to a non-loaded SA tip; one concentration, 1:1 fit; Octet Red384
Details: one partner purified

T2 sequence (P00698 19-147): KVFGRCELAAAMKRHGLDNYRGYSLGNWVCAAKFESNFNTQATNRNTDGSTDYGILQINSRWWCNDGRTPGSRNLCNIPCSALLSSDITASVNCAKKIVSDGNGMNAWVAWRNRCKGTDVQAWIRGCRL

Binder | Kd [nM] | binding result
anti-HEL nanobody M15 (VHH, synthetic nanobody from the yeast surface display library; also called VHH-M15; source: E. coli, periplasmic extract (vector pSBinit)) VHH: QVQLQESGGGLVQAGGSLRLSCAASGTISSQKLMGWYRQAPGKEREFVAAINDGATTNYADSVKGRFTISRDNAKNTVYLQMNSLKPEDTAVYYCAAYYDVRGYYWGTFGYWGQGTQVTVSS | 9.81 | –
anti-HEL nanobody M5 (VHH, synthetic nanobody from the yeast surface display library; also called VHH-M5; source: E. coli, periplasmic extract (vector pSBinit)) VHH: QVQLQESGGGLVQAGGSLRLSCAASGSIFYYTDMGWYRQAPGKEREFVASIGYGGITYYADSVKGRFTISRDNAKNTVYLQMNSLKPEDTAVYYCAVQRSFESYGYWGHVYWGQGTQVTVSS | 19 | –
anti-HEL nanobody M6 (VHH, synthetic nanobody from the yeast surface display library; also called VHH-M6; source: E. coli, periplasmic extract (vector pSBinit)) VHH: QVQLQESGGGLVQAGGSLRLSCAASGSISRDPDMGWYRQAPGKEREFVASISGGTTTYYADSVKGRFTISRDNAKNTVYLQMNSLKPEDTAVYYCAVQRSFESYGYWGHVYWGQGTQVTVSS | 14.2 | –
anti-HEL nanobody C1 (VHH, synthetic nanobody from the yeast surface display library, picked as a random colony after R3 MACS; Framework is that of the library; source: E. coli, periplasmic extract (vector pSBinit)) VHH: QVQLQESGGGLVQAGGSLRLSCAASGSIFWAGYMGWYRQAPGKEREFVAAIDYGANTYYADSVKGRFTISRDNAKNTVYLQMNSLKPEDTAVYYCAVDRQPYYRRDNSHLYWGQGTQVTVSS | – | binds
anti-HEL nanobody C2 (VHH, synthetic nanobody from the yeast surface display library, picked as a random colony after R3 MACS; Framework is that of the library; source: E. coli, periplasmic extract (vector pSBinit)) VHH: QVQLQESGGGLVQAGGSLRLSCAASGNISADASMGWYRQAPGKEREFVAAIARGATTYYADSVKGRFTISRDNAKNTVYLQMNSLKPEDTAVYYCAVDQYDVTKRYIGHIYWGQGTQVTVSS | – | binds
